Experimental data taken from PMC3642127, “Distinguishable In Vitro Binding Mode of Monomeric TRBP and Dimeric PACT with siRNA” (PLoS ONE, 2013).

Key:
Conditions in all cases: protein: recombinant; tags: N-His6;C-myc; label: 32P guide strand; 2 nt 3' overhangs
TRBP-dsRBDmt1+2 = biological target: T1, TRBP-dsRBDmt1+2 (human, UniProt Q15633 1-366, K80A;K81A;K210A;K211A); assay: EMSA; virtually no binding; Kd ND; EMSA: 20 mM Tris pH 7.5, 150 mM NaCl, 2 mM EDTA, 1 mM 2-mercaptoethanol, 1 mM DTT, 50 ng/ul salmon sperm DNA, 0.4 U/ul RNasin, 0.5 nM 32P-siRNA, 30 min on ice
T1 sequence: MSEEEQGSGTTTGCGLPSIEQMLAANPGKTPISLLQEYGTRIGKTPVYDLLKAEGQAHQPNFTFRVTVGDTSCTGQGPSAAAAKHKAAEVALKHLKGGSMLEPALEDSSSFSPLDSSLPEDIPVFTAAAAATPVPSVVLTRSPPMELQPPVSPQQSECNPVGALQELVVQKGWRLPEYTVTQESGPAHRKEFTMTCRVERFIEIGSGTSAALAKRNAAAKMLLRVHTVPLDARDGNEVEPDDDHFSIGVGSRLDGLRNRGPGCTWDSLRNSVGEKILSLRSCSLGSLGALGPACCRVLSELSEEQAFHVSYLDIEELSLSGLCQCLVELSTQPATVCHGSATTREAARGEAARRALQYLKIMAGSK

TRBP-dsRBDmt1 = biological target: T2, TRBP-dsRBDmt1 (human, UniProt Q15633 1-366, K80A;K81A); assay: EMSA; single-step complex; EMSA: 20 mM Tris pH 7.5, 150 mM NaCl, 2 mM EDTA, 1 mM 2-mercaptoethanol, 1 mM DTT, 50 ng/ul salmon sperm DNA, 0.4 U/ul RNasin, 0.5 nM 32P-siRNA, 30 min on ice
T2 sequence: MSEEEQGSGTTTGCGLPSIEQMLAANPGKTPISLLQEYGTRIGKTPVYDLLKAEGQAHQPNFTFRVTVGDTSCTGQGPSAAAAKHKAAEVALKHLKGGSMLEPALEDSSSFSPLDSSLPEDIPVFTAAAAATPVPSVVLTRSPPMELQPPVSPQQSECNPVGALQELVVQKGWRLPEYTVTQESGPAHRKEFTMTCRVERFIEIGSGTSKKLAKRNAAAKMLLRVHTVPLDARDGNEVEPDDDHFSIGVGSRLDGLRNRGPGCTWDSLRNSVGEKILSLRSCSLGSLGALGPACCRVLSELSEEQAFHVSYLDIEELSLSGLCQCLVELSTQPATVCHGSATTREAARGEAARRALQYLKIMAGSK

TRBP-dsRBDmt2 = biological target: T3, TRBP-dsRBDmt2 (human, UniProt Q15633 1-366, K210A;K211A); assay: as above
T3 sequence: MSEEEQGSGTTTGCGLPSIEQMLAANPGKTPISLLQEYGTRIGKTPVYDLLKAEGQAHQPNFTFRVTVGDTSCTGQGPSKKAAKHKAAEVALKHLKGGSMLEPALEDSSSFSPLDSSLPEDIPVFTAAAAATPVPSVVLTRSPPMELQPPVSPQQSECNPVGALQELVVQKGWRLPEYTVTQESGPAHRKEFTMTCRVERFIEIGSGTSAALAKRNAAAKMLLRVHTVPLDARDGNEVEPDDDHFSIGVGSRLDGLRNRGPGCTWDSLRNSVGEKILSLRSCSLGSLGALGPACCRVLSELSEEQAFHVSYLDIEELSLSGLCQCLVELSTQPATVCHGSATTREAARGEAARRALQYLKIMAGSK

TRBP-WT = biological target: T4, TRBP-WT (human, UniProt Q15633 1-366); assay: EMSA; complex 1 (monomer); EMSA: 20 mM Tris pH 7.5, 150 mM NaCl, 2 mM EDTA, 1 mM 2-mercaptoethanol, 1 mM DTT, 50 ng/ul salmon sperm DNA, 0.4 U/ul RNasin, 0.5 nM 32P-siRNA, 30 min on ice
T4 sequence: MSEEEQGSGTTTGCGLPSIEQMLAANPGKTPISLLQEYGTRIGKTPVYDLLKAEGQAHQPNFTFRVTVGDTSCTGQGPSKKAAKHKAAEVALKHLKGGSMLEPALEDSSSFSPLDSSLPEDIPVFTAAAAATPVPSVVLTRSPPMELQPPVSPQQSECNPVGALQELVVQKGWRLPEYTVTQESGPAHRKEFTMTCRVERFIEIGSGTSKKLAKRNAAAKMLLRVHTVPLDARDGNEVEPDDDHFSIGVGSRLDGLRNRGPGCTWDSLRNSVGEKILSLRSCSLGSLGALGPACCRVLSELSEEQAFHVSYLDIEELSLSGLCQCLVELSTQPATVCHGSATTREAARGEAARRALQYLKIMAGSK

TRBP-ΔdsRBD3 = biological target: T5, TRBP-ΔdsRBD3 (human, UniProt Q15633 1-292); assay: EMSA; complex 1; EMSA: 20 mM Tris pH 7.5, 150 mM NaCl, 2 mM EDTA, 1 mM 2-mercaptoethanol, 1 mM DTT, 50 ng/ul salmon sperm DNA, 0.4 U/ul RNasin, 0.5 nM 32P-siRNA, 30 min on ice
T5 sequence: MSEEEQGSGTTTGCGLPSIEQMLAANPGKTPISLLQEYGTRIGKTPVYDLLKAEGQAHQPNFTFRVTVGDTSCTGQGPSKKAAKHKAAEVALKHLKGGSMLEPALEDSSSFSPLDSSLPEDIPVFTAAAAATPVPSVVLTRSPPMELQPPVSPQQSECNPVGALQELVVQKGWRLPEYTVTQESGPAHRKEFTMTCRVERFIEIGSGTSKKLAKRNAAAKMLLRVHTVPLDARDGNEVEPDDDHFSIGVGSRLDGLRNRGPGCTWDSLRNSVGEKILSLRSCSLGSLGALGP

B1: siLuc2-153 (dsRNA)
RNA 1: UCGAAGUAUUCCGCGUACGUG
RNA 2: CGUACGCGGAAUACUUCGAUU
**Q.** Does B1 bind (TRBP-dsRBDmt1+2)?
**A.** no binding

**Q.** And the Kd (TRBP-dsRBDmt1)?
**A.** 260 nM

**Q.** What about the Kd (TRBP-dsRBDmt2) of the same binder?
**A.** 520 nM

**Q.** And the Kd (TRBP-WT)?
**A.** 4 nM

**Q.** What about the Kd (TRBP-ΔdsRBD3) of the same binder?
**A.** 12 nM
